Data reported in patent US7696313B2, “Prodrug compounds with isoleucine” (priority 2000, dated 2010).
Values joined by “and” are separate entries in the source; they are usually repeats but may differ in a detail not shown here. Equal entries are not always repeated. “Also recorded” adds a separate entry of the source.

Tests used:
[1] = test system: HT-29 (colon carcinoma) cells; conditions: read-out: IC50 HT29; 48 hours, 3H-thymidine incorporation
Method: (§1) Adherent cells, LNCaP (prostate carcinoma), HT-29 (colon carcinoma) and PC-3 (prostate carcinoma), were cultured in DMEM media containing 10% heat inactivated fetal calf serum (FCS). On the day of the study the cells were detached from the plate with a trypsin solution. The collected cells were washed and resuspended at a concentration of 0.25×10^6 cells/ml in DMEM containing 10% FCS. 100 μl of cell suspension were added to 96 well plates and the plates were incubated for 3 hours to allow the cells to adhere. […] The plates were then incubated for 24 hours, pulsed with 10 μl of a 100 μCi/ml ^3H-thymidine and incubated for an additional 24 hours (total incubation time 48 hours). The plates were harvested using a 96 well Harvester (Packard Instruments) and counted on a Packard Top Count Counter. Four parameter logistic curves were fitted to the ^3H-thymidine incorporation as a function of drug molarity using Prism software to determine IC50 values.
(§2) Prostate carcinoma cells, LNCaP and PC-3 cells or colon carcinoma cells HT-29, were incubated with increasing concentration of the indicated compounds for 48 hours and cellular proliferation was measured using the ^3H-thymidine assay.

[2] = test system: LNCaP (prostate carcinoma) cells; conditions: read-out: IC50 LNCaP; 48 hours, 3H-thymidine incorporation
Method: as §1, §2

[3] = test system: PC-3 (prostate carcinoma) cells; conditions: read-out: IC50 PC-3; 48 hours, 3H-thymidine incorporation
Method: as §1, §2

[4] = Initial single dose Maximum Tolerated Dose (MTD) study, 28 days; format: in vivo, mice; conditions: mouse, in vivo
Method: (§3) In our initial single dose Maximum Tolerated Dose (MTD) study, groups of five normal mice were administered intravenous bolus doses of Suc-Ile-Ala-Leu-Dox. The mice were observed daily for 28 days and body weights measured twice weekly.
(§4) The mice were observed daily for 28 days and body weights measured twice weekly.
(§5) In the single dose Maximum Tolerated Dose (MTD) studies, groups of normal mice were administered intravenous bolus doses of the prodrug. The mice were observed daily for 28 days and body weights measured twice weekly. The MTD was estimated to be equal to the highest dose that produced no death in mice after 28 days.

[5] = test system: normal mice; assay: as above; format: in vivo; conditions: for single dose MTD fold higher than doxorubicin alone, after post-analysis: about 75% active compound, versus doxorubicin […] mg/kg; for acute toxicity / single-dose MTD, doxorubicin equivalent: intravenous bolus; for acute toxicity: all dose levels tested; for single-dose MTD, doxorubicin equivalent: normal mice; for single-dose MTD fold higher than doxorubicin alone: versus doxorubicin 4 mg/kg
Method: as §3, §4, §5

[6] = test system: normal ICR mice; assay: Second single dose Maximum Tolerated Dose (SD-MTD) study, 49 days; conditions: for acute toxicity within 24 hours: any dose level; for SD-MTD (mg/kg Dox=): doxorubicin equivalent
Method: (§6) In a second single dose Maximum Tolerated Dose (SD-MTD) study, groups of five normal ICR mice were administered intravenously bolus doses of Suc-Ile-Ala-Leu-Dox. The mice were observed daily for 49 days and body weights measured twice weekly.
(§7) In a second single dose Maximum Tolerated Dose (SD-MTD) study, groups of five normal ICR mice were administered intravenous bolus doses of Suc-βAla-Ile-Ala-Leu-Dox. The mice were observed daily for 49 days and body weights measured twice weekly.

[7] = Metabolism and clearance in normal mice (plasma and urine, LC MS/MS); format: in vivo
Method: The metabolism and clearance of Suc-Ile-Ala-Leu-Dox was studied in normal mice. The mice were administered Suc-Ile-Ala-Leu-Dox at a single intravenous bolus dose of 117 mg/kg. Plasma samples were obtained at 1 and 4 hours. Plasma samples of 100 μl were transferred to Eppendorf tubes (1.5 mL) and an internal standard of daunorubicin (20 μL at 0.5 mg/ml) was added together with acetonitrile (400 μl). The tubes were capped and briefly vortexed followed by centrifugation at 14,000 rpm. 420 μl from each tube was removed and dried in vacuo. Each sample was reconstituted in 65 μl ammonium formate containing acetonitrile (20%) prior to analysis by reverse phase liquid chromatography in combination with tandem mass spectrometry (LC MS/MS).
Urine was collected at 2 and 24 hours post administration from pairs of mice in metabolic cages. Urine samples were diluted with ammonium formate containing acetonitrile (20%) to give a target analyte concentration within the practical range of the LC MS/MS assay. 30 μl of each diluted sample was placed in an Eppendorf tube (1.5 ml) and an internal standard of daunorubicin (20 μL at 0.5 mg/ml) was added together with 50 μl of ammonium formate containing acetonitrile (20%). Each sample was then analyzed by LC MS/MS.
An Agilent HP 1100. HPLC with DAD detector and Chemstation software was coupled to a PE Sciex API 365 mass spectrometer with an electrospray ion source.
HPLC was performed on a TSK-Gel Super ODS, […], 4.6×50 mm (TosoHaas) reversed phase column equipped with a […] C18 guard disc (Higgins Analytical) and stainless steel frit (Upchurch Scientific). Chromatography was performed at room temperature. The flow rate was 0.5 ml/min. Injection volume was 50 μl. Gradient elution was performed using a mobile phase of 20 mM ammonium formate with increasing amounts of acetonitrile. The API 365 was operated at 365° C. in a multiple reaction monitoring mode, set to monitor specific analyte parent-daughter ion pairs. Integration of chromatograms was performed by MacQuan software (PE Sciex) and quantitation of each analyte obtained by comparison to previously obtained calibration curves. Daunorubicin was used as an internal standard in all cases.
Percent of administered dose—plasma volume estimated at 40% of blood volume, which was calculated at 7% of animal's body weight.
Plasma samples were obtained at 1 and 4 hours from separate mice. Urine was collected at 2 and 24 hours post administration from pairs of mice in metabolic cages. The plasma and urine samples were prepared and analyzed as described in Example 4.

[8] = mouse, in vivo, iv, 100 umol/kg
Method: (§9) Plasma was obtained from three individual animals in each group at 5 minutes, 1, 2, 4, or 6 hr.

[9] = for Major Plasma Metabolite, Table 7 / Major Plasma Metabolite, Table 8: mice
Method: as §9

[10] = test system: LNCaP, HT-29 and PC-3 cells; assay: 3H-thymidine proliferation assay, stated across the cell lines used; format: cell-based; conditions: 48 hours, 3H-thymidine incorporation; read-out: IC50 of the positive control in the cell lines used
Method: as §1, §2

[11] = test system: doxorubicin-resistant colorectal carcinoma LS174t; assay: LS174t human colorectal carcinoma xenograft efficacy; format: in vivo, nude mice; conditions: uncorrected
Method: (§8) In repeat-dose studies in tumor bearing mice, groups of ten mice were dosed with various amounts of prodrug for a total of five doses at either five day or 1 week intervals.

[12] = test system: tumor bearing mice; conditions: repeat dosing, 5 doses; cited from earlier work
[13] = test system: doxorubicin-resistant colorectal carcinoma LS174t; conditions: tolerated dose under this dosing regimen; cited from earlier work
[14] = Metabolism and clearance in normal mice (plasma and urine, LC MS/MS); format: in vivo; conditions: after Suc-βAla-Ile-Ala-Leu-Dox 117 mg/kg
[15] = Second single dose Maximum Tolerated Dose (SD-MTD) study, 49 days; conditions: mouse, in vivo, iv
Method: as §6, §7

[16] = Repeat-dose tolerance (RD-MTD) in tumor bearing mice; format: in vivo; conditions: mouse, in vivo
Method: as §8

[17] = test system: tumor bearing mice; assay: as above; format: in vivo
Method: as §8

[18] = 28 days, uncorrected doses, read-out: SD MTD (mg/kg), Table 7
[19] = SD MTD, doxorubicin equivalent dose, Table 8, value in parentheses, corrected results
[20] = SD MTD, molar equivalent dose of doxorubicin, Table 7, value in parentheses, uncorrected
[21] = corrected results, read-out: SD MTD (mg/kg), Table 8
[22] = after Suc-Ile-Ala-Leu-Dox 117 mg/kg, collected 0-2 hours
[23] = after Suc-Ile-Ala-Leu-Dox 117 mg/kg, collected 2-24 hours

| Structure (SMILES) | IC50 [1] | IC50 [2] | IC50 [3] | MTD [4, 18] | MTD [4, 19] | MTD [4, 20] | MTD [4, 21] | single dose MTD fold higher than doxorubicin alone, after post-analysis [5] | acute toxicity [5] | single-dose MTD, doxorubicin equivalent ([5]; 28 days) | single-dose MTD fold higher than doxorubicin alone [5] | acute toxicity within 24 hours [6] | SD-MTD (mg/kg Dox=) [6] | Urine 2 hr, percent of administered dose [7, 22] | Urine 24 hr, percent of administered dose [7, 23] | AUC(0-t) [8] | Major Plasma Metabolite, Table 7 [9] | Major Plasma Metabolite, Table 8 [9] | other results |
| --- | --- | --- | --- | --- | --- | --- | --- | --- | --- | --- | --- | --- | --- | --- | --- | --- | --- | --- | --- |
| CC[C@H](C)[C@H](NC(=O)CCC(=O)O)C(=O)N[C@@H](C)C(=O)N[C@@H](CC(C)C)C(=O)N[C@H]1C[C@H](O[C@H]2C[C@](O)(C(=O)CO)Cc3c(O)c4c(c(O)c32)C(=O)c2c(OC)cccc2C4=O)O[C@@H](C)[C@H]1O [Suc-Ile-Ala-Leu-Dox] | 47 µM | 1.1 µM | 88 µM | > 117 mg/kg | 56 mg/kg | > 70 mg/kg | 94 mg/kg | at least 3.3 fold | no acute toxicity | 66 mg of doxorubicin/kg and 70 mg of doxorubicin/kg | at least 16 fold | no acute toxicity | 56 mg/kg Dox= and 58 mg/kg Dox= | 3.9 % of administered dose | 15.0 % of administered dose | 452 µM·h | Leu-Dox | Leu-Dox | mortalities ([5]; doses up to 117 mg/kg, 28 days): no mortalities; relative exposure to doxorubicin ([9]; tripeptide vs tetrapeptide counterpart, leucine vs isoleucine compounds): two fold decrease |
| COc1cccc2c1C(=O)c1c(O)c3c(c(O)c1C2=O)C[C@@](O)(C(=O)CO)C[C@@H]3O[C@H]1C[C@H](N)[C@H](O)[C@H](C)O1 [Doxorubicin, reference compound] |  |  |  |  |  |  |  |  |  |  |  |  |  | 0.06 % of administered dose | 0.36 % of administered dose |  |  |  | IC50 [10]: 0.02 to 0.08 µM; Optimal Efficacy Repeat Dose (mg/kg) ([11]; five doses at five day or 1 week intervals, 60 days): 4 (4) mg/kg; Optimal Efficacy Repeat Dose, molar equivalent dose of doxorubicin ([11]; value in parentheses): 4 (4) mg/kg; Plasma 4 hr, percent of administered dose ([7]; mouse, in vivo, 4 h): 0.00 % of administered dose; tolerated repeat dose level of doxorubicin (standard safe RD efficacious dose) [12]: 4 mg/kg and 3 mg/kg; efficacy of doxorubicin alone at its tolerated dose in LS174t model [13]: historically ineffective; also recorded: completely ineffective; Urine 2 hr, percent of administered dose ([14]; collected 0-2 hours): 0.21 % of administered dose; Urine 24 hr, percent of administered dose ([14]; collected 2-24 hours): 0.51 % of administered dose |
| CC[C@H](C)[C@H](NC(=O)CCNC(=O)CCC(=O)O)C(=O)N[C@@H](C)C(=O)N[C@@H](CC(C)C)C(=O)N[C@H]1C[C@H](O[C@H]2C[C@](O)(C(=O)CO)Cc3c(O)c4c(c(O)c32)C(=O)c2c(OC)cccc2C4=O)O[C@@H](C)[C@H]1O [Suc-βAla-Ile-Ala-Leu-Dox] | 38 µM | 0.19 µM | 57 µM | 75 mg/kg | 42 mg/kg | 42 mg/kg | 75 mg/kg | approximately 3.7 fold | No acute toxicity | 40 mg of doxorubicin/kg | approximately 10 fold | no acute toxicity | 42 mg/kg Dox= |  |  | 326 µM·h | Leu-Dox | Leu-Dox | MTD ([4]; iv, intravenous bolus, normal mice, 28 days, read-out: single-dose Maximum Tolerated Dose (MTD)): 75 mg/kg; morbidity ([5]; 75 mg/kg dose group): no morbidity; animals euthanized due to treatment-related toxicity ([5]; 100 mg/kg dose group, Day 21, groups of five): two; animals euthanized due to treatment-related toxicity ([5]; 125 mg/kg dose group, Day 14, groups of five): four; MTD [15]: 75 mg/kg; morbidity or mortality ([6]; 75 mg/kg dose group): no morbidity or mortality; animals euthanized due to weight loss or paralysis ([6]; 100 mg/kg dose, by Day 21, groups of five): three; SD-MTD Molar Ratio (Dox=) ([6]; fold higher on a molar basis than SD-MTD of doxorubicin): 2.6; MTD ([16]; Q7Dx5 as printed, based on efficacy study in Example 8, read-out: RD-MTD (repeat-dose MTD)): ~53 mg/kg; MTD ([16]; Repeat Dose MTD, doxorubicin equivalent dose, Table 8, value in parentheses, corrected results): 30 mg/kg; MTD ([16]; corrected results, Q 5D × 5 or Q 7D × 5, read-out: Repeat Dose MTD (mg/kg), Table 8): 53 mg/kg; RD-MTD, doxorubicin equivalent per dose ([17]; Q7Dx5 as printed): 30 mg/kg doxorubicin equivalent; RD-MTD as total exposure ([17]; after 5 doses (Q5DX5)): approximately 150 mg/kg doxorubicin equivalent; treated animals terminated due to signs of toxicity ([17]; high dose group (68 mg/kg, Q5DX5), groups of ten): Two; RD-MTD fold higher than RD-MTD / tolerated repeat dose level of doxorubicin ([17]; versus doxorubicin 4 mg/kg): at least 6.5 fold; Urine 2 hr, percent of administered dose ([7]; mouse, in vivo): 12.7 % of administered dose; Urine 24 hr, percent of administered dose ([7]; mouse, in vivo): 4.81 % of administered dose |
